# Where a chain is given by its changes, count along the chain named. In names and notes the source's numbering stands. Where no end group is shown, it is not given here.
# B1: A3CT K457A/R458A (domain or fragment)
# chain: DENASKIISAGRAKRSIAQPDDAGERFRQLKEQEKRSKKNKAVAKDTVELVEESQSESEEGSDDEEEEAREGALASSTTSKPLPEVGQRRSKRSAAKRTV
# B2: A3CT K459A/R460A (domain or fragment)
# chain: B1 chain with A95K, A96R, K97A, R98A
# Target: full-length cpSRP43 (UniProt O22265)
# Assay: ITC; VP-ITC, 20 °C, 20 mM Hepes (pH 7.5), 150 mM NaCl, 5 mM MgCl2, 0.25 mM TCEP; 0.01–0.1 mM in the cell, 0.1–1.0 mM in the syringe; duplicate or triplicate
row,Binder,Kd
1,"GALASSTTSKPLPEVGQRRSKRSKRKRT (also: 15N,13C labelled where it is the observed NMR partner) [A3CT IV peptide]",15 µM
2,B1,44 µM
3,B2,20 µM

# — article PMC4660199
